The source of these data is IntAct's records for PubMed 27478939.

The labels stand for the following.
B1: Purine nucleoside phosphorylase LACC1 (Homo sapiens), Q8IV20 (parent)
chain: MAEAVLIDLFGLKLNSQKNCHQTLLKTLNAVQYHHAAKAKFLCIMCCSNISYERDGEQDNCEIETSNGLSALLEEFEIVSCPSMAATLYTIKQKIDEKNLSSIKVIVPRHRKTLMKAFIDQLFTDVYNFEFEDLQVTFRGGLFKQSIEINVITAQELRGIQNEIETFLRSLPALRGKLTIITSSLIPDIFIHGFTTRTGGISYIPTLSSFNLFSSSKRRDPKVVVQENLRRLANAAGFNVEKFYRIKTHHSNDIWIMGRKEPDSYDGITTNQRGVTIAALGADCIPIVFADPVKKACGVAHAGWKGTLLGVAMATVNAMIAEYGCSLEDIVVVLGPSVGPCCFTLPRESAEAFHNLHPACVQLFDSPNPCIDIRKATRILLEQGGILPQNIQDQNQDLNLCTSCHPDKFFSHVRDGLNFGTQIGFISIKE

In the experiment the parent is B1. To be noted: with fas_human FASN.
Consider MAEAVLIDLFGLKLNSQKNCHQTLLKTLNAVQYHHAAKAKFLCIMCCSNISYERDGEQDNCEIETSNGLSALLEEFEIVSCPSMAATLYTIKQKIDEKNLSSIKVIVPRHRKTLMKAFIDQLFTDVYNFEFEDLQVTFRGGLFKQSIEINVITAQELRGIQNEIETFLRSLPALRGKLTIITSSLIPDIFIHGFTTRTGGISYIPTLSSFNLFSSSKRRDPKVVVQENLRRLANAAGFNVEKFYRIKTHHSNDVWIMGRKEPDSYDGITTNQRGVTIAALGADCIPIVFADPVKKACGVAHAGWKGTLLGVAMATVNAMIAEYGCSLEDIVVVLGPSVGPCCFTLPRESAEAFHNLHPACVQLFDSPNPCIDIRKATRILLEQGGILPQNIQDQNQDLNLCTSCHPDKFFSHVRDGLNFGTQIGFISIKE [I254V], for which the “effect of a mutation on the interaction” value is given as “with no effect”.
